Experimental data taken from patent US7387779B2, “Anti-angiogenic proteins and fragments and methods of use thereof” (Beth Israel Deaconess Medical Center, priority 1998, dated 2008).

B1: Canstatin: NC1 domain of the α2 chain of Type IV collagen (SEQ ID NO:6) (protein, listed as Homo sapiens)
chain: VSIGYLLVKHSQTDQEPMCPVGMNKLWSGYSLLYFEGQEKAHNQDLGLAGSCLARFSTMPFLYCNPGDVCYYASRNDKSYWLSTTAPLPMMPVAEDEIKPYISRCSVCEAPAIAIAVHSQDVSIPHCPAGWRSLWIGYSFLMHTAAGDEGGGQSLVSPGSCLEDFRATPFIECNGGRGTCHYYANKYSFWLTTIPEQSFQGSPSADTLKAGLIRTHISRCQVCMKNL
B2: Tumstatin: NC1 domain of the α3 chain of type IV collagen, residues 1-244 (SEQ ID NO:10) (protein, listed as Homo sapiens)
chain: GLKGKRGDSGSPATWTTRGFVFTRHSQTTAIPSCPEGTVPLYSGFSFLFVQGNQRAHGQDLGTLGSCLQRFTTMPFLFCNVNDVCNFASRNDYSYWLSTPALMPMNMAPITGRALEPYISRCTVCEGPAIAIAVHSQTTDIPPCPHGWISLWKGFSFIMFTSAGSEGTGQALASPGSCLEEFRASPFLECHGRGTCNYYSNSYSFWLASLNPERMFRKPIPSTVKAGELEKIISRCQVCMKKRH
B3: endostatin: tumor associated angiogenesis inhibitor used as comparator (protein, UniProt P39060 1572-1754, looked up)
Endostatin: HSHRDFQPVLHLVALNSPLSGGMRGIRGADFQCFQQARAVGLAGTFRAFLSSRLQDLYSIVRRADRAAVPIVNLKDELLFPSWEALFSGSEGPLKPGARIFSFDGKDVLRHPTWPQKSVWHGSDPNGRRLTESYCETWRTEAPSATGQASSLLGGRLLGQSAASCHHAYIVLCIENSFMTASK
modifications: Endostatin
B4: Tumstatin-44-131: residues 44 to 131 of full-length Tumstatin (SEQ ID NO:33) (protein)
chain: FSFLFVQGNQRAHGQDLGTLGSCLQRFTTMPFLFCNVNDVCNFASRNDYSYWLSTPALMPMNMAPITGRALEPYISRCTVCEGPAIAI
modifications: Tumstatin-45-132 (amino acids 45-132 of SEQ ID NO10)

Tests used:
[1] = system: mouse aortic endothelial cells (MAE); assay: Endothelial tube formation on Matrigel; type: cell-based; conditions: for ED50: endothelial tube assay (FIGS. 30 and 31)
Protocol: To measure inhibition of endothelial tube formation, 320 μl of Matrigel (Collaborative Biomedical Products, Bedford, Mass., USA) was added to each well of a 24-well plate and allowed to polymerize (Grant, D. S. et al., 1994, Pathol. Res. Pract. 190:854-63). A suspension of 25,000 mouse aortic endothelial cells (MAE) in EGM-2 medium (Clonetics Corp., San Diego, Calif., USA) without antibiotic was passed into each well coated with Matrigel. The cells were treated with increasing concentrations of either Arresten, BSA, sterile PBS or the 7S domain. All assays were performed in triplicate. Cells were incubated for 24-48 hours at 37° C. and viewed using a CK2 Olympus microscope (3.3 ocular, 10× objective). The cells were then photographed using 400 DK coated TMAX film (Kodak). Cells were stained with diff-quik fixative (Sigma Chemical Company, St. Louis, Mo., USA) and photographed again. Ten fields were viewed, and the tubes counted and averaged.
Matrigel (Collaborative Biomedical Products, Bedford, Mass., USA) was added ([…]) to each well of a 24 well plate and allowed to polymerize (Grant, D. S. et al., supra). A suspension of 25,000 mouse aortic endothelial cells (MAE) in EGM-2 (Clonetics Corporation, San Diego, Calif., USA) medium without antibiotic was passed into each well coated with Matrigel. The cells were treated with either Canstatin, BSA, sterile PBS or α5-NC1 domain in increasing concentrations. All assays were performed in triplicate. Cells were incubated for 24-48 hours at 37° C. and viewed using a CK2 Olympus microscope (3.3 ocular, 10× objective). The cells were then photographed using 400 DK coated TMAX film (Kodak). Cells were stained with diff-quik fixative (Sigma Chemical Co., St. Louis, Mo., USA) and photographed again (Grant, D. S. et al., 1994, Pathol. Res. Pract. 190:854-63). Ten fields were viewed, tubes counted and averaged.
Matrigel (Collaborative Biomedical Prods., Bedford, Mass., USA) was added ([…]) to each well of a 24-well plate and allowed to polymerize (Grant, D. S. et al., 1994, Pathol. Res. Pract. 190:854-63). A suspension of 25,000 MAE cells in EGM-2 medium (Clonetics Corporation, San Diego, Calif., USA) without antibiotic was passed into each well coated with Matrigel (Grant, D. S. et al., 1994, Pathol. Res. Pract. 190:854-63). The cells were treated with either Tumstatin, BSA or 7S domain in increasing concentrations. Control cells were incubated with sterile PBS. All assays were performed in triplicate. Cells were incubated for 24-48 hours at 37° C. and viewed using a CK2 Olympus microscope (magnification of 3.3× ocular, 10× objective). The cells were then photographed using 400 DK coated TMAX film (Kodak). Cells were stained with diff-quik fixative (Sigma Chemical Co.) and photographed again (Grant, D. S. et al., 1994, Pathol. Res. Pract. 190:854-63). Ten fields were viewed, and the number of tubes were counted by two investigators unaware of the experimental protocols, and averaged.
Fragments and mutants of Arresten and Canstatin were also made according to the Pseudomonas elastase digestions of Mariyama et al. (1992, J. Biol. Chem. 267:1253-58). The digest was resolved by gel filtration HPLC and the resultant fragments were analyzed by SDS-PAGE and evaluated in the endothelial tube assay described above. These fragments included a 12 kDa fragment of Arresten, an 8 kDa fragment of Arresten, and a 10 kDa fragment of Canstatin. In addition, two fragments of Tumstatin (‘333’ and ‘334’) were generated by PCR cloning.

[2] = system: HUVECs; assay: Endothelial tube formation on Matrigel; type: cell-based, human
Protocol: Tumstatin-44-131 was also found to inhibit endothelial tube formation, as shown by Matrigel assay. The Matrigel assay was performed as described in the examples above. Briefly, HUVECS were allowed to form tubes on Matrigel-coated plates incubated with or without 5 μg/ml E. Coli-expressed Tumstatin-44-131. BSA-treated cells and yeast-expressed human endostatin (5 and 20 μg/ml) was used as controls. […] The average percentage tube branch formation after treatment was 22.7±3.1 for the BSA treatment, 2.1±2.0 for Tumstatin-44-131 treatment, while the 5 μg/ml and 20 μg/ml endostatin produced an average of 19.4±3.0 and 7.5±6.0, respectively.

Molecule	ED50 [1]	average percentage tube branch formation ([2]; 5 μg/ml, BSA 22.7±3.1)	also measured
B1	0.4 µg/mL	–	inhibition of tube formation ([1]; 1 mg of Canstatin protein produced in 293 cells): near complete inhibition
B2	0.55 µg/mL	–	concentration of maximum inhibition [1]: 800 to 1000 ng/mL; Percentage of tube formation after treatment ([1]; 1 mg/ml of protein, produced in 293 cells): 14.0±4.0
B3	–	19.4±3.0	average percentage tube branch formation ([2]; 20 μg/ml endostatin): 7.5±6.0
B4	–	2.1±2.0	–
